Test results: paper doi:10.1101/2022.10.17.512494

Molecular target: recombinant VE-cadherin-Fc (UniProt P55284)
Experiment: atomic force microscopy

recombinant VE-cadherin-Fc (from UniProt P55284 46-599) (Fc fusion)
binding activity (binding probability): 61%
